Data published in patent US12013397B2, “Compositions and methods for determining cancer prognosis” (CASE WESTERN RESERVE UNIVERSITY, priority 2019, dated 2024).
Ends that are not written are not given here. Texas Red = Texas Red fluorescent dye

How the values were obtained:
[1] = test system: GBM tissue; conditions: cited from earlier work
[2] = molecular target: T1, proteolytically cleaved extracellular fragments of PTPμ (Homo sapiens, UniProt P28827); assay: SBK4-TR staining of human glioma tissue microarrays and slides; assay type: binding
T1 construct: from tissue; host or cells: formalin-fixed, paraffin-embedded human glioma patient tumor tissue (TMAs and slides)
T1 sequence (P28827 21-742 limits assumed): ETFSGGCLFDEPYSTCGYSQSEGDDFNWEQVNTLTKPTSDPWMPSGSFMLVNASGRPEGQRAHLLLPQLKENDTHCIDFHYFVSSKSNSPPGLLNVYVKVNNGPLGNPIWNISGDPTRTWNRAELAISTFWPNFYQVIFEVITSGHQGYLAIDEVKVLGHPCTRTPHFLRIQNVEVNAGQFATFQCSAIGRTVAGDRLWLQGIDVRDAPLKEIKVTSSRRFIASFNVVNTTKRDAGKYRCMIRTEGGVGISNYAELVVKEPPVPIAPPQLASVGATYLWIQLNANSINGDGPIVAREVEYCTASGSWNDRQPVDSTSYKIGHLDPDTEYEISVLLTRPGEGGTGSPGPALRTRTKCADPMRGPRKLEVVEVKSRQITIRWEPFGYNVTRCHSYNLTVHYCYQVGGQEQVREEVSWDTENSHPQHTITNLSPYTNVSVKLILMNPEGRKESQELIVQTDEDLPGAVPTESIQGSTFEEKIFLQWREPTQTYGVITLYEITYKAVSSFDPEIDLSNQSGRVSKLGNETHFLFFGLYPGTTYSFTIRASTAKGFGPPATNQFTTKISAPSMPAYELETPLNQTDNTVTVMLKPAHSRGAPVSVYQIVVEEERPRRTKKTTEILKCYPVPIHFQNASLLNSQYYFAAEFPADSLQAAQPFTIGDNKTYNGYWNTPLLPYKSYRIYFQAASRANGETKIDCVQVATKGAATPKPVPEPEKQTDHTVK
Excerpt: The SBK4 peptide used for immunohistochemistry was synthesized as described. The N-terminal glycine of SBK4 peptide was coupled to Texas Red (TR; Molecular Probes Inc, Eugene Oreg.) as described to make the fluorescent agent. Anti-IDH1 R132H Monoclonal Antibody clone H09 (American Research Products [Dianova GmbH], Waltham, Mass.) reacts specifically with the isocitrate dehydrogenase 1 (IDH1) R132H point mutation in tissue sections from formalin-fixed brain tumor specimens.
Patient tumor samples were obtained, formalin-fixed, and paraffin-embedded for analysis. Some samples were incorporated into tissue microarrays (TMAs) and some samples were placed on individual slides. Together, these TMAs and slides represented samples from 94 glioma patients (25 adolescent and young adult and 69 adult) with astrocytomas (n=12), oligodendroglioma (n=14), oligoastrocytoma (n=7), and GBM (n=61). Tissue staining with SBK4-TR has been described. […] Antibody binding was detected using MACH4 horseradish peroxidase (Biocare, Pacheco, Calif.) and diaminobenzidine was used as chromogenic substrate. […]
Tissue staining intensity for both PTPμ and IDH1 biomarkers was quantified by blinded observers. […] For IDH1, samples were scored as either positive for the mutation or negative as it is done clinically.

[3] = molecular target: T2, PTPμ biomarker (Homo sapiens, UniProt P28827); assay: SBK4-TR staining of human gynecologic cancer, normal and PDX tissue (Image J quantification); assay type: binding
T2 construct: from tissue; host or cells: formalin-fixed, paraffin-embedded human gynecologic cancer and normal tissue, and patient-derived xenograft sections
T2 sequence (P28827 21-1452): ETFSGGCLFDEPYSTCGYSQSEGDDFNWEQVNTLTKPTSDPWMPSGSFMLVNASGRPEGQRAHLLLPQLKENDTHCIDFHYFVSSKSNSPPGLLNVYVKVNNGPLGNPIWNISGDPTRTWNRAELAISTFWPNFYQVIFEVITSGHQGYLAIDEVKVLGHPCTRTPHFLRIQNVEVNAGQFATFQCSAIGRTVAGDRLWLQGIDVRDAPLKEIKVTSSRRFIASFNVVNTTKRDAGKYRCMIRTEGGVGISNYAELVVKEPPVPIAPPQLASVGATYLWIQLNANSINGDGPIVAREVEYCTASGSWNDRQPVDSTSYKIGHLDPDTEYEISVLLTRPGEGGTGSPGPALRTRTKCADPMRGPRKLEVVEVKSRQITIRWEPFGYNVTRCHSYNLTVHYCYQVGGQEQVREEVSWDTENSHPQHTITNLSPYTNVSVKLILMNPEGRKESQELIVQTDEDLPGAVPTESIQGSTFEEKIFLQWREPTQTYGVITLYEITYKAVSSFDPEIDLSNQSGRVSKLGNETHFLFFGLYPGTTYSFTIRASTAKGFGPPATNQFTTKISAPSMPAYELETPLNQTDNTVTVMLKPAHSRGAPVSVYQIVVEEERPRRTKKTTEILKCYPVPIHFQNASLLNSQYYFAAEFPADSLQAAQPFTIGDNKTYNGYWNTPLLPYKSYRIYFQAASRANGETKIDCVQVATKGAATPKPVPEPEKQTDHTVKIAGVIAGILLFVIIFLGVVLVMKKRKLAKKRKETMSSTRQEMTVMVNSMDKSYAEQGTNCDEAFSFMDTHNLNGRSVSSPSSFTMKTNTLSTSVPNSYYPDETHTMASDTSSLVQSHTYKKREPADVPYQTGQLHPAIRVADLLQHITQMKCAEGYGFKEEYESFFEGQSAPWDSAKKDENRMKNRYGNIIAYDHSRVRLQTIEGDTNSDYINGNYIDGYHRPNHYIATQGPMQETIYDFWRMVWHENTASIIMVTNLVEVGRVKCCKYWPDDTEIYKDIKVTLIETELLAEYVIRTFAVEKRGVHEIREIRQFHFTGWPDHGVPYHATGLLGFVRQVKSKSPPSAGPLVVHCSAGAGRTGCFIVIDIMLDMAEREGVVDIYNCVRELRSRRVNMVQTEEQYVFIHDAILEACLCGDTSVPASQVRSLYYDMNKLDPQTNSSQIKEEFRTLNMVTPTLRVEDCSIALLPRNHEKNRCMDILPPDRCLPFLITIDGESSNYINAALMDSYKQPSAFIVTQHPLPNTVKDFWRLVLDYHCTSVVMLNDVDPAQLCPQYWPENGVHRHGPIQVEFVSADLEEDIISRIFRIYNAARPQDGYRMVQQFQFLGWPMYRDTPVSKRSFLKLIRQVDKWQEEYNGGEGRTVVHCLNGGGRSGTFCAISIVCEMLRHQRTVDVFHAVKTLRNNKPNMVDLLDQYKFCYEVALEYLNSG
Excerpt: The SBK4 peptide used for tissue staining was synthesized as described. The N-terminal glycine of SBK4 peptide was coupled to Texas Red (TR; Molecular Probes Inc, Eugene, Oreg., USA) as described to make the fluorescent agent. Anti-p53 Monoclonal or Ki-67 antibodies were used to counterstain tissue sections, to indicate nuclear staining of p53 typical in high-grade serous ovarian carcinoma.
All samples used for this study were obtained from the Difeo and Avril labs. The Avril group generated tissue microarrays of several gynecologic cancers (TMAs) to facilitate screening a large number of patient biopsy tissues. The Difeo lab generated TMAs that included sections from patient derived xenografts (PDXs) matched to original patient tumor tissue sections. Additional individual biopsy and normal tissue samples were stained as individual slides. Together, these TMAs and slides represented samples from 73 patients (49 with gynecologic cancer, 22 sections from patients without cancer, and 2 patients with gynecologic cancer tissue and control tissue samples collected). The following gynecologic cancer types were represented in the dataset: endometrial clear cell carcinoma (n=3), endometrial endometrioid carcinoma (n=18), endometrial high-grade serous carcinoma (n =6), endometrial leiomyosarcoma (n=1), endometrial undifferentiated carcinoma (n=1), endometrial undifferentiated sarcoma (n=1), neuroendocrine tumor of the uterus (small cell) (n=1), ovarian carcinosarcoma (n=1), ovarian borderline serous (n=1), ovarian high-grade villoglandular carcinoma (n=1), ovarian high-grade serous carcinoma (n=16), ovarian endometrioid carcinoma (n=1).
Tissue staining with SBK4-TR was described. Positive controls (GBM) and negative controls (Epilepsy) were tested with the TMAs or individual slides. Tumor samples were obtained formalin-fixed and paraffin-embedded. Prior to staining, the TMAs or slides were deparaffinized and blocked with 2% goat serum in phosphate buffered saline (PBS) for 20 min at room temperature (RT). The samples were then incubated with SBK4-TR agent diluted in 2% goat serum in PBS at RT for 1 hr in the dark. Following a PBS rinse, the TMAs or slides were coverslipped with Vectashield Hard Set Mounting Medium (Vector Laboratories, Inc., Burlingame, Calif., USA) and imaged on a Hamamatsu Nanozoomer S60 slide scanner (Bridgewater, N.J., USA). Some samples were also stained for the IDH1 mutation. Tissue staining for both PTPμ was quantified using Image J.

Row | PTPμ staining of the tumor samples ([2]; formalin-fixed paraffin-embedded glioma samples, fluorescent microscope) | staining observed within the TMAs ([3]; gynecologic cancer TMAs) | Compound | labeling the dispersive GBM tumor border ([1]; in vivo) | six month progression-free survival ([1]; surgical resection of GBM) | extent of tumor resection ([1]; surgical resection of GBM, versus 36% with white light alone) [%] | labeling of glioma tissue by grade ([2]; low- and high-grade glioma tissue) | SBK4-TR staining of tumor tissue compared to control tissue ([3]; endometrial endometrioid cancer, high-grade serous endometrial carcinoma, endometrial clear cell carcinoma, small sample sizes) | SBK4-TR labeling of tumor tissue compared to normal tissue ([3]; high-grade serous ovarian carcinoma vs normal ovary or normal fallopian tube) | SBK4-TR labeling of PDX tissue compared to original patient tumor tissue ([3]; matched patient tumor and PDX tumors, all samples) | correspondence of sites of high SBK4-TR labeling with p53 and Ki-67 staining ([3]; patient with multiple lesions)
1 | – | – | NCC(=O)CCC(=O)O [5-ALA, 5-aminolevulinic acid] | less effective | improvement | 65 | – | – | – | – | –
2 | variable PTPμ staining | varied amongst individual patients | SBK4-TR: SBK4 peptide (SEQ ID NO: 7) conjugated to Texas Red ({Texas Red}-GIDVRDAPLKEIKVTSSR) | – | – | – | labels both low- and high-grade glioma tissue | did not have statistically significantly higher SBK4-TR staining than control tissue | statistically significantly higher staining | PDX tissue had higher levels of SBK4-TR labeling than the original patient tumor tissue | correspond to areas of high p53 and Ki-67 staining
